Measurements from article PMC9814548, “Chemoenzymatic synthesis of 3-ethyl-2,5-dimethylpyrazine by L-threonine 3-dehydrogenase and 2-amino-3-ketobutyrate CoA ligase/L-threonine aldolase” (Communications Chemistry, 2021).

T1: CnKBL (Cupriavidus necator, UniProt Q0K313)
T1 construct: gene kbl; gene cloned in pET-28a (NcoI/XhoI), E. coli BL21(DE3), Ni-Sepharose and gel filtration; dimer; PLP on K246
T1 sequence (Q0K313 1-399): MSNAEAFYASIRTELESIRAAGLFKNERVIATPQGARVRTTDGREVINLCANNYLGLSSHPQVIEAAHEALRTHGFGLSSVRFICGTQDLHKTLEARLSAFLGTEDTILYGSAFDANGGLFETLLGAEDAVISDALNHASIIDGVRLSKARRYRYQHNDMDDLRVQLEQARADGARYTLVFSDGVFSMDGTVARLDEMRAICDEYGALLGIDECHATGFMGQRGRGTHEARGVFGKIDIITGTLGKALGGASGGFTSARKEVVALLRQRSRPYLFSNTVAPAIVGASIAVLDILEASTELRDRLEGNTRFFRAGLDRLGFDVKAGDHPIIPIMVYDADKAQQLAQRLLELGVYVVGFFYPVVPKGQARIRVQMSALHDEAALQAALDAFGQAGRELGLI

B1: CnKBL (Cupriavidus necator H16) (protein)
chain: T1 sequence (Q0K313 1-399)
notes: gene cloned in pET-28a (NcoI/XhoI), E. coli BL21(DE3), Ni-Sepharose and gel filtration; dimer; PLP on K246

Assays:
CnKBL = target: T1, CnKBL; experiment: X-ray crystal structure, […] Å; format: binding; conditions: covalent, Schiff base with K246
purified protein [1] = substrate: CCC(O)C(N)C(=O)O; experiment: purified protein; format: biochemical, Cupriavidus necator; conditions: 50 mM potassium phosphate pH 8.0, 30 °C, no CoA
purified protein [2] = substrate: NCC(=O)O; experiment: purified protein; format: biochemical, Cupriavidus necator; conditions: 1 mM acetyl-CoA, 50 mM potassium phosphate pH 8.0, 30 °C
purified protein [3] = substrate: C[C@H](O)[C@H](N)C(=O)O; experiment: purified protein; format: biochemical, Cupriavidus necator; conditions: 50 mM potassium phosphate pH 8.0, 30 °C, no CoA
purified protein [4] = substrate: C[C@@H](O)[C@H](N)C(=O)O; experiment: purified protein; format: biochemical, Cupriavidus necator; conditions: 50 mM potassium phosphate pH 8.0, 30 °C, no CoA
purified protein [5] = substrate: CC(=O)SCCNC(=O)CCNC(=O)[C@H](O)C(C)(C)COP(=O)(O)OP(=O)(O)OC[C@H]1O[C@@H](n2cnc3c(N)ncnc32)[C@H](O)[C@@H]1OP(=O)(O)O; experiment: purified protein; format: biochemical, Cupriavidus necator; conditions: 100 mM Gly, 50 mM potassium phosphate pH 8.0, 30 °C

Molecule	X-ray crystal structure, 1.8 Å (CnKBL)	Km (purified protein [1])	kcat (purified protein [1])	kcat/Km (purified protein [1])	Km (purified protein [2])	kcat (purified protein [2])	Km (purified protein [3])	kcat (purified protein [3])	kcat/Km (purified protein [3])	Km (purified protein [4])	kcat (purified protein [4])	kcat/Km (purified protein [4])	Km (purified protein [5])	kcat (purified protein [5])
Cc1ncc(COP(=O)(O)O)c(C=O)c1O [PLP]	only PLP is coordinated at the site by forming a Schiff base with the side chain	–	–	–	–	–	–	–	–	–	–	–	–	–
B1	–	200 ± 56 µM	0.00123 ± 7.17e-05 s⁻¹	6.17 M⁻¹ s⁻¹	13900 ± 520 µM	3.43 ± 0.036 s⁻¹	420 ± 86 µM	0.000778 ± 4.33e-05 s⁻¹	1.83 M⁻¹ s⁻¹	1240 ± 110 µM	0.00283 ± 0.0065 s⁻¹	2.33 M⁻¹ s⁻¹	242.7 ± 10.4 µM	3.43 ± 0.036 s⁻¹
